Data on 15 molecules can be found in patent EP4755449A2 (CHUGAI SEIYAKU KABUSHIKI KAISHA, dated 2026).

B1: MS_M103205H795-SG1/M103202L889-SK1 (antibody, human IgG1, kappa)
heavy: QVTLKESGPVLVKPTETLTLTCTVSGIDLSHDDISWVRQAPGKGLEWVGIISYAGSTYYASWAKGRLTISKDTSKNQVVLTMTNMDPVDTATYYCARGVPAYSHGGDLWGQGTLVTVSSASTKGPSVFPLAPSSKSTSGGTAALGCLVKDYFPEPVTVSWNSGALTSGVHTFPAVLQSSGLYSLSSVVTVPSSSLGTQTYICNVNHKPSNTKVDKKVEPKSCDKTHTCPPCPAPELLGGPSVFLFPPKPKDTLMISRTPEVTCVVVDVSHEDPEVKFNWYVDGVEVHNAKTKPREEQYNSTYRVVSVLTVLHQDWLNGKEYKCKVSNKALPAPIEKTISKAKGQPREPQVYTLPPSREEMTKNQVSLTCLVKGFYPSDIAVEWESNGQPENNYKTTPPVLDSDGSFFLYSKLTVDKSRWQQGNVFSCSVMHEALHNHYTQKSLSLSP
light: DIVMTQSPATLSLSPGERATLSCTSSQSVYHANWLSWFQQKPGQPPKLLIYWASTLAYGVPSRFSGSGSGTDFTLTISSLQPEDAATYYCAGGYGGGRYAFGQGTKVEIKRTVAAPSVFIFPPSDEQLKSGTASVVCLLNNFYPREAKVQWKVDNALQSGNSQESVTEQDSKDSTYSLSSTLTLSKADYEKHKVYACEVTHQGLSSPVTKSFNRGEC
notes: also called MS1032LO06-SG1
B2: MS_M103205H1004-SG1/M103202L889-SK1 (antibody, human IgG1, kappa, V domains shown)
VH: QVTLKESGPVLVKPTETLTLTCTVSGIDLSHDDISWVRQAPGKGLEWVGIISYAGSMYYASWAKGRLTISKDTSKNQVVLTMTNMDPVDTATYYCARGVPAYSHGGDKWGQGTLVTVSS
VL: DIVMTQSPATLSLSPGERATLSCTSSQSVYHANWLSWFQQKPGQPPKLLIYWASTLAYGVPSRFSGSGSGTDFTLTISSLQPEDAATYYCAGGYGGGRYAFGQGTKVEIKR
notes: also called MS1032LO07-SG1
B3: MS_M103205H795-SG1/M103202L1060-SK1 (antibody, human IgG1, kappa, V domains shown)
VH: B2 VH with M57T, K108L
VL: B2 VL with Y30F, A32E, Y58W
notes: also called MS1032LO24-SG1
B4: MS_M103205H1046-SG1/M103202L889-SK1 (antibody, human IgG1, kappa, V domains shown)
VH: B2 VH with D32T, S56K, M57T, G65K, K108L
VL: B2 VL
notes: also called MS1032LO10-SG1
B5: M103205H795-SG1 P396M/M103202L889-SK1 (antibody, human IgG1, kappa)
heavy: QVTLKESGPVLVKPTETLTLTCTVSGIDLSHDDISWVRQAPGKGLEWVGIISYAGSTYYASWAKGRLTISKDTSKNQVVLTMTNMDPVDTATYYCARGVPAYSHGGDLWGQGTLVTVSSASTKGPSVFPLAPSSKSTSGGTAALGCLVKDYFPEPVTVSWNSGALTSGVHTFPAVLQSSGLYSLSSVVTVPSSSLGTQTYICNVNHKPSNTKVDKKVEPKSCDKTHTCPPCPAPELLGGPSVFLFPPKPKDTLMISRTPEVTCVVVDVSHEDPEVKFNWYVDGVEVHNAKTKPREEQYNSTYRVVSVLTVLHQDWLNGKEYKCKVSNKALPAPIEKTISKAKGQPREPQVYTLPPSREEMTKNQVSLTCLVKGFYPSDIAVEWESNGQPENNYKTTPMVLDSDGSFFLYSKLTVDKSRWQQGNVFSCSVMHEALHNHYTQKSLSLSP
light: B1 light
notes: copies: 2 + 2
B6: M103205H795-SG1 S298L/M103202L889-SK1 (antibody, human IgG1, kappa)
heavy: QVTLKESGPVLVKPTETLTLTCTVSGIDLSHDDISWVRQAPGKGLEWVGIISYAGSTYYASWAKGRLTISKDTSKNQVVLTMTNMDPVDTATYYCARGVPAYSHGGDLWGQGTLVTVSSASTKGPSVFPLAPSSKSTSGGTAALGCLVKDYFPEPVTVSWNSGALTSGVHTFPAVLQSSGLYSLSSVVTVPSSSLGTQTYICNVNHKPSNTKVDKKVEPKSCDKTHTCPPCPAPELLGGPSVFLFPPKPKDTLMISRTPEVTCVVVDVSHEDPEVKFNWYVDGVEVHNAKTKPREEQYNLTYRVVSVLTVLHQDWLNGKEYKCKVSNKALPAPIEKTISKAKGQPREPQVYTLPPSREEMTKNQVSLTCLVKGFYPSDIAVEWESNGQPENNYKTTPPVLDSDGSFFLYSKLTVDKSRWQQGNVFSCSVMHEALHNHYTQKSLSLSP
light: B1 light
notes: copies: 2 + 2
B7: M103205H795-SG1 Q295L/M103202L889-SK1 (antibody, human IgG1, kappa)
heavy: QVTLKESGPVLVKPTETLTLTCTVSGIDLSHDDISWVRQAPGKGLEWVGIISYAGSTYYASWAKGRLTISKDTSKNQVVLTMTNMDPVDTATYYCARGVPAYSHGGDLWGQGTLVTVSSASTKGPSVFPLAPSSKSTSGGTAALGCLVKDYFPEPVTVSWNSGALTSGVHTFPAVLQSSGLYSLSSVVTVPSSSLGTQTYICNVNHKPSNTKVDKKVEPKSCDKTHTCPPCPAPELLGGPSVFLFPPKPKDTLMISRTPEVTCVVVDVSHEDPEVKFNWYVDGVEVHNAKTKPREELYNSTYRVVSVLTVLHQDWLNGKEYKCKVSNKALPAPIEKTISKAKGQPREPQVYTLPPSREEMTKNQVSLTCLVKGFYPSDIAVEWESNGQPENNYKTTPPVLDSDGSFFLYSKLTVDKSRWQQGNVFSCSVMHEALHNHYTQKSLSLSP
light: B1 light
notes: copies: 2 + 2
B8: M103205H795-SG1 S239V/M103202L889-SK1 (antibody, human IgG1, kappa)
heavy: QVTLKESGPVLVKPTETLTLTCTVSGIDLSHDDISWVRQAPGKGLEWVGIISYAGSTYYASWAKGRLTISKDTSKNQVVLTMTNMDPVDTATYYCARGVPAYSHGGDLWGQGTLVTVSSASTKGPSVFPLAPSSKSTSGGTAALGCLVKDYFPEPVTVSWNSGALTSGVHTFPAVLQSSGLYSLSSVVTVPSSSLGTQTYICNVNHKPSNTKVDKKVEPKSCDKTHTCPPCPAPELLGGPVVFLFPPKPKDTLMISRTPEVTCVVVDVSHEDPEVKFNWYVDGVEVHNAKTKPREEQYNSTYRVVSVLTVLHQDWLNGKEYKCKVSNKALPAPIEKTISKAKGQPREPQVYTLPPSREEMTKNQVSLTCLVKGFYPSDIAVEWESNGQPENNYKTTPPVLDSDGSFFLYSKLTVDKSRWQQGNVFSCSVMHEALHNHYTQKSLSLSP
light: B1 light
notes: copies: 2 + 2
B9: M103205H795-SG1 P331E/M103202L889-SK1 (antibody, human IgG1, kappa)
heavy: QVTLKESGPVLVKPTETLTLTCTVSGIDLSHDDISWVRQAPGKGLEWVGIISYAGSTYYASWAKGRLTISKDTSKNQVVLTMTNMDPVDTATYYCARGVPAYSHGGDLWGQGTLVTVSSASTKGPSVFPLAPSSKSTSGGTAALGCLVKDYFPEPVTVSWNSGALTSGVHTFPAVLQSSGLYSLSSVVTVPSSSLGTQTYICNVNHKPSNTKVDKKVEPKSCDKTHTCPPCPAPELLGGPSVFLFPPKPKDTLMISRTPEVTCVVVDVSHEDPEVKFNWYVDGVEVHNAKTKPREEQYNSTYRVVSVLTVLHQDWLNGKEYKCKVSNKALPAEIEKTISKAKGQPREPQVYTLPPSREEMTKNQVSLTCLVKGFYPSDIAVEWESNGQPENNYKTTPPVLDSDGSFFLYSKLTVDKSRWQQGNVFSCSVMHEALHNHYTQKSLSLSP
light: B1 light
notes: copies: 2 + 2
B10: M103205H795-SG1 S267A/M103202L889-SK1 (antibody, human IgG1, kappa)
heavy: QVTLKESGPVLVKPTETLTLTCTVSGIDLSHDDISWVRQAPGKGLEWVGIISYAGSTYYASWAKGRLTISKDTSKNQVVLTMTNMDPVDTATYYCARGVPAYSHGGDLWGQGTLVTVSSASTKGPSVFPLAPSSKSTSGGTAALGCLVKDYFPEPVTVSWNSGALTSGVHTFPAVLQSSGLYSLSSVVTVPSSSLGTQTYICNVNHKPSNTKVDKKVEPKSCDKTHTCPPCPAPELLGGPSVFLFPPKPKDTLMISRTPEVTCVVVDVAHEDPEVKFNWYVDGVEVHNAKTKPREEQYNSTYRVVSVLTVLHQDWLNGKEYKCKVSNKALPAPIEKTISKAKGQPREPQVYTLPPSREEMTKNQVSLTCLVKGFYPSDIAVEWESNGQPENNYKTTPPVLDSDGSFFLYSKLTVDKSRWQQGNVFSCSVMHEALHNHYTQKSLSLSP
light: B1 light
notes: copies: 2 + 2
B11: M103205H795-SG1 P271G/M103202L889-SK1 (antibody, human IgG1, kappa)
heavy: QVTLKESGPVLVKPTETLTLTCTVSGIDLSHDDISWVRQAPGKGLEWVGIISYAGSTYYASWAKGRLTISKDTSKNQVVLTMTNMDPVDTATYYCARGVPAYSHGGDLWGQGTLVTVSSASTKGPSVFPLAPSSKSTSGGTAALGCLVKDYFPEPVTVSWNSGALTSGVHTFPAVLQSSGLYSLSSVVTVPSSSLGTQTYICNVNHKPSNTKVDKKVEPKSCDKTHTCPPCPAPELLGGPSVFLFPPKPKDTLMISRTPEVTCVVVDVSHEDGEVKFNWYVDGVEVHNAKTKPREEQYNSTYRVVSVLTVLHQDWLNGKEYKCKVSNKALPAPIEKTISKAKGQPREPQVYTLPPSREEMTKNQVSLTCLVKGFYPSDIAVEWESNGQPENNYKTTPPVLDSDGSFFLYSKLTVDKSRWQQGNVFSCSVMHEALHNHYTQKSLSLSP
light: B1 light
notes: copies: 2 + 2
B12: M103205H795-SG1 L235W/M103202L889-SK1 (antibody, human IgG1, kappa)
heavy: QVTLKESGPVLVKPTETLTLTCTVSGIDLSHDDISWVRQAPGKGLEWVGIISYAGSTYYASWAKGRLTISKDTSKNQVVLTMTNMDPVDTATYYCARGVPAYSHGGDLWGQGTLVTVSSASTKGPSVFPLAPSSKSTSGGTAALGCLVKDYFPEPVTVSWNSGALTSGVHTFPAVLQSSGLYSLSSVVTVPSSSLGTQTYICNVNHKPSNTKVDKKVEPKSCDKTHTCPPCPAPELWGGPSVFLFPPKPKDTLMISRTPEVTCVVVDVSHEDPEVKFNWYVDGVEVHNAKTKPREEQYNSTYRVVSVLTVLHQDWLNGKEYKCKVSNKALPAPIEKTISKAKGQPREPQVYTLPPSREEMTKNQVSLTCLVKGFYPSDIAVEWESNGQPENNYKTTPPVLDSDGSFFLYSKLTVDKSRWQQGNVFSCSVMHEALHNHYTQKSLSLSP
light: B1 light
notes: copies: 2 + 2
B13: MS_M103205H707-SG1/M103202L802-SK1 (antibody, human IgG1, kappa, V domains shown)
VH: B2 VH with D32Y, M57T, K108L
VL: B2 VL with A32D, R98L
notes: also called MS1032LO04-SG1
B14: MS_M103205H781-SG1/M103202L813-SK1 (antibody, human IgG1, kappa, V domains shown)
VH: B2 VH with D32T, M57T, A60M, K108L
VL: B2 VL with T24Q, S25T, A32D, Y58S
notes: also called MS1032LO03-SG1
B15: MS_M103205H781-SG1/M103202L719-SK1 (antibody, human IgG1, kappa, V domains shown)
VH: B2 VH with D32T, M57T, A60M, K108L
VL: B2 VL with T24Q, A32N, Y58F, R98L
notes: also called MS1032LO02-SG1

Positions count from the first letter of the chain named. Numbers in names are those of the source.

Broadly, the koff is the first-order rate constant of dissociation. One may read the kon as the second-order rate constant of association.

The target in the first test is T1, mouse latent myostatin (mouse, UniProt O08689 26-267; O08689 268-376).
T1 sequence 1: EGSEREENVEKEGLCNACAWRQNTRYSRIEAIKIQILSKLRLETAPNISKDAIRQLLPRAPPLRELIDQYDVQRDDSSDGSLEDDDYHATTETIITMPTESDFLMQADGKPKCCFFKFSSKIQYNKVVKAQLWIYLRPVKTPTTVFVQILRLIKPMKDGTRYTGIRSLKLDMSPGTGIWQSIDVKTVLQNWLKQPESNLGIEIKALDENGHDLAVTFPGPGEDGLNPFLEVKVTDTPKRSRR
T1 sequence 2: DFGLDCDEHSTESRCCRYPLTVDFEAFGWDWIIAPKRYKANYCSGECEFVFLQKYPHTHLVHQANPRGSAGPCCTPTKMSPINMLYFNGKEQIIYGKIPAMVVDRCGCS
Put plainly: SPR 37C.
In the case of B1, the “ratio of KD at pH 5.8/pH7.4” value was found to be 76.
Still for that read-out and setting: next, B2: 97; B3: 6.
The same measure, in the same setting: the value for B4 was 35.

The target of a further test is T2, human latent myostatin (human, UniProt O14793 25-266; O14793 267-375).
T2 construct: non-covalent complex of two propeptides and the mature homodimer; also called human myostatin latent form
T2 sequence 1: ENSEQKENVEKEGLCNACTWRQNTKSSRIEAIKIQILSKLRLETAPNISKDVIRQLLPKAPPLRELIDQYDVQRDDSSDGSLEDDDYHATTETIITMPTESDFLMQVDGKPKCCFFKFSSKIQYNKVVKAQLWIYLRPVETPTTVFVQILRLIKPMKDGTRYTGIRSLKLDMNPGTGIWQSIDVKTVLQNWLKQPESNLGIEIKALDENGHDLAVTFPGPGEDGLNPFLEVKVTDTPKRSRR
T2 sequence 2: T1 sequence 2
Put plainly: SPR 37C.
Turning to B1, the “ratio of KD at pH 5.8/pH7.4” value was found to be 119.
Same read-out and setting: the value for B2 was 168; that for B3 was 9; that for B4 was 125.

The target of another test is T3, cynomolgus monkey latent myostatin (cynomolgus monkey, UniProt Q95J86 25-266; Q95J86 267-375, limits assumed).
T3 construct: also called cyno latent myostatin
T3 sequence 1: T2 sequence 1 with V52A
T3 sequence 2: T1 sequence 2
As to the kind of experiment: SPR 37C.
As for B1, the “ratio of KD at pH 5.8/pH7.4” value turned out to be 76.
As for B2, the “ratio of KD at pH 5.8/pH7.4” value stood at 102.
The same measure, in the same setting: next, B3: 5; B4: 38.

Another test deals with T1, mouse latent myostatin. As to the kind of experiment: SPR 37C pH7.4; pH 7.4.
On to B1, for which the Kd stood at 0.299 nM.
Still for that read-out and setting: the value for B2 was 0.319 nM; that for B3 was 0.176 nM.
Same read-out and setting: the value for B4 was 0.314 nM.

A further test deals with T2, human latent myostatin. As to the kind of experiment: SPR 37C pH7.4; pH 7.4.
Take B1: the Kd was 0.285 nM.
In the case of B2, the Kd came out at 0.275 nM.
On the same count and under the same terms, next, B3: 0.164 nM.
Molecule B4 registered a Kd of 0.351 nM.

The next test concerns the target T3, cynomolgus monkey latent myostatin. Put plainly: SPR 37C pH7.4; pH 7.4.
Regarding B1, the Kd was 0.343 nM.
Molecule B2 had a Kd of 0.339 nM.
Still for that read-out and setting: next, B3: 0.189 nM; B4: 0.419 nM.

Another test has as its target T4, cyno Fc gamma RIIb extracellular domain, His-tagged (cynomolgus monkey).
T4 construct: also called cynoFcgRIIb
T4 chain: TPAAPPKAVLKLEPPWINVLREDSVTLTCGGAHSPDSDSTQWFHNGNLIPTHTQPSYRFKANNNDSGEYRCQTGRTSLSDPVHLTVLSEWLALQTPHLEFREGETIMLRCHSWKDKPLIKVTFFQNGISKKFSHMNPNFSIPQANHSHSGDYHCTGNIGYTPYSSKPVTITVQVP
Put plainly: SPR 25C.
For B5, the binding result is listed as “binds”.
On to B6, for which the binding result was “binds”.
For B7, the binding result is recorded as “binds”.
The same measure, in the same setting: next, B8: “binds”.
Same read-out and setting: the value for B9 was “binds”.
The same measure, in the same setting: next, B10: “binds”.
Take B11: the binding result is on record as “binds”.
In the case of B12, the binding result was “binds”.

Another test has as its target T5, human Fc gamma RIIb extracellular domain, His-tagged (human, UniProt P31994 43-217).
T5 construct: also called FcgRIIb
T5 sequence: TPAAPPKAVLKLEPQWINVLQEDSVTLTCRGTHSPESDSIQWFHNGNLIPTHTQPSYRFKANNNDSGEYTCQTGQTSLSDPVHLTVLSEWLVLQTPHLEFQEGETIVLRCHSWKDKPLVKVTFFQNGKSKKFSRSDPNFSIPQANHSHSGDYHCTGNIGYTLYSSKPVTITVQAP
Put plainly: SPR 25C.
For B5, the binding result is “binds”.
Still for that read-out and setting: the value for B6 was “binds”.
The same measure, in the same setting: next, B7: “binds”; B8: “binds”; B9: “binds”.
Same read-out and setting: next, B10: “binds”; B11: “binds”; B12: “binds”.

A further test deals with T1, mouse latent myostatin. As to the kind of experiment: SPR 37C pH5.8; pH 5.8.
B1 registered a Kd of 22.6 nM.
Molecule B2 yielded a Kd of 30.8 nM.
On the same count and under the same terms, the value for B3 was 1.02 nM; that for B4 was 10.9 nM.

Another test has as its target T2, human latent myostatin. As to the kind of experiment: SPR 37C pH5.8; pH 5.8.
In the case of B1, the Kd worked out at 34 nM.
Still for that read-out and setting: next, B2: 46.2 nM.
Still for that read-out and setting: the value for B3 was 1.52 nM; that for B4 was 43.8 nM.

The target of another test is T3, cynomolgus monkey latent myostatin. Put plainly: SPR 37C pH5.8; pH 5.8.
B1: the Kd is 25.9 nM.
Same read-out and setting: next, B2: 34.7 nM; B3: 0.929 nM.
Same read-out and setting: next, B4: 16.1 nM.

A further test addresses T2, human latent myostatin. As to the kind of experiment: SPR avidity condition pH5.8 37C; pH 5.8.
For B13, the Kd turned out to be 9.13 nM, the koff was found to be 0.00713 s⁻¹ and the kon stood at 781000 M⁻¹ s⁻¹.
For B14, in that order: 9.66 nM, 0.00524 s⁻¹ and 543000 M⁻¹ s⁻¹.
For B15, in that order: 24.3 nM, 0.0414 s⁻¹ and 1.7e+06 M⁻¹ s⁻¹.

The target in another test is T2, human latent myostatin. As to the kind of experiment: SPR affinity condition pH7.4 37C.
The molecule B13 showed a Kd of 0.812 nM, an off-rate constant (koff) of 0.00125 s⁻¹ and a kon of 1.54e+06 M⁻¹ s⁻¹.
In the same order, the values of B14 are 1.08 nM, 0.00117 s⁻¹ and 1.08e+06 M⁻¹ s⁻¹.
In the same order, the values of B15 are 1.64 nM, 0.00179 s⁻¹ and 1.08e+06 M⁻¹ s⁻¹.

In a further test the target is T2, human latent myostatin. As to the kind of experiment: SPR avidity condition pH7.4 37C; pH 7.4.
As for B13, the Kd came to 0.163 nM, the koff was determined as 0.000217 s⁻¹ and the kon turned out to be 1.33e+06 M⁻¹ s⁻¹.
The molecule B14 registered a Kd of 0.196 nM, a koff of 0.000192 s⁻¹ and an on-rate (kon) of 981000 M⁻¹ s⁻¹.
For B15, in that order: 0.298 nM, 0.000249 s⁻¹ and 836000 M⁻¹ s⁻¹.
